*1 amine or outer side, *2 acyl side, *3 side chain or, on linkers, in order; H or OH if unused. Side-chain parts run from the residue outwards. The star is where a group is joined. C18 diacid = O=C(O)CCCCCCCCCCCCCCCCC(=O)*; γGlu = O=C(O)[C@H](CCC(=O)[*:2])N[*:1]; Isovaleryl = CC(C)CC(=O)*; AEEA = NCCOCCOCC(=O)O
T1: human neuropeptide Y2 receptor (human, UniProt P49146 1-381)
T1 construct: whole, on cells; also called hNPY2 receptor; hNPY2-R
T1 sequence (looked up): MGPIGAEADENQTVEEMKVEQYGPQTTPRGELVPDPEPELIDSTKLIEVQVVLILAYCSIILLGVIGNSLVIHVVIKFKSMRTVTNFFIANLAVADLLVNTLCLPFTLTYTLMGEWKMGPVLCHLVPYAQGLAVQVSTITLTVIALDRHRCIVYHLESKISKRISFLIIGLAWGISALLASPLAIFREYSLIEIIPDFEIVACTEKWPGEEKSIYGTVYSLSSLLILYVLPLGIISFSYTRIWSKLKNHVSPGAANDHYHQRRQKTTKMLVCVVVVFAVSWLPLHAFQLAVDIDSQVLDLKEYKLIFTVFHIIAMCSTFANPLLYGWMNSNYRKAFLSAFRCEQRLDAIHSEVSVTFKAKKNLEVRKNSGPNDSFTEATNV

B1: Compound 67 (peptide)
peptide: Isovaleryl-APEK([AEEA-AEEA-γGlu-C18 diacid])PEEDSAPEELQRYYVSLRHYYNWLTRQRY-NH2
SMILES: CC(C)CC(=O)N[C@@H](C)C(=O)N1CCC[C@H]1C(=O)N[C@@H](CCC(=O)O)C(=O)N[C@@H](CCCCNC(=O)COCCOCCNC(=O)COCCOCCNC(=O)CC[C@H](NC(=O)CCCCCCCCCCCCCCCCC(=O)O)C(=O)O)C(=O)N1CCC[C@H]1C(=O)N[C@@H](CCC(=O)O)C(=O)N[C@@H](CCC(=O)O)C(=O)N[C@@H](CC(=O)O)C(=O)N[C@@H](CO)C(=O)N[C@@H](C)C(=O)N1CCC[C@H]1C(=O)N[C@@H](CCC(=O)O)C(=O)N[C@@H](CCC(=O)O)C(=O)N[C@@H](CC(C)C)C(=O)N[C@@H](CCC(N)=O)C(=O)N[C@@H](CCCNC(=N)N)C(=O)N[C@@H](Cc1ccc(O)cc1)C(=O)N[C@@H](Cc1ccc(O)cc1)C(=O)N[C@H](C(=O)N[C@@H](CO)C(=O)N[C@@H](CC(C)C)C(=O)N[C@@H](CCCNC(=N)N)C(=O)N[C@@H](Cc1c[nH]cn1)C(=O)N[C@@H](Cc1ccc(O)cc1)C(=O)N[C@@H](Cc1ccc(O)cc1)C(=O)N[C@@H](CC(N)=O)C(=O)N[C@@H](Cc1c[nH]c2ccccc12)C(=O)N[C@@H](CC(C)C)C(=O)N[C@H](C(=O)N[C@@H](CCCNC(=N)N)C(=O)N[C@@H](CCC(N)=O)C(=O)N[C@@H](CCCNC(=N)N)C(=O)N[C@@H](Cc1ccc(O)cc1)C(N)=O)[C@@H](C)O)C(C)C
B2: Compound 68 (peptide)
peptide: Isovaleryl-APEK([AEEA-AEEA-γGlu-C18 diacid])PEEEASPEELQAYYVSLRHYYNWLTRQRY-NH2
SMILES: CC(C)CC(=O)N[C@@H](C)C(=O)N1CCC[C@H]1C(=O)N[C@@H](CCC(=O)O)C(=O)N[C@@H](CCCCNC(=O)COCCOCCNC(=O)COCCOCCNC(=O)CC[C@H](NC(=O)CCCCCCCCCCCCCCCCC(=O)O)C(=O)O)C(=O)N1CCC[C@H]1C(=O)N[C@@H](CCC(=O)O)C(=O)N[C@@H](CCC(=O)O)C(=O)N[C@@H](CCC(=O)O)C(=O)N[C@@H](C)C(=O)N[C@@H](CO)C(=O)N1CCC[C@H]1C(=O)N[C@@H](CCC(=O)O)C(=O)N[C@@H](CCC(=O)O)C(=O)N[C@@H](CC(C)C)C(=O)N[C@@H](CCC(N)=O)C(=O)N[C@@H](C)C(=O)N[C@@H](Cc1ccc(O)cc1)C(=O)N[C@@H](Cc1ccc(O)cc1)C(=O)N[C@H](C(=O)N[C@@H](CO)C(=O)N[C@@H](CC(C)C)C(=O)N[C@@H](CCCNC(=N)N)C(=O)N[C@@H](Cc1c[nH]cn1)C(=O)N[C@@H](Cc1ccc(O)cc1)C(=O)N[C@@H](Cc1ccc(O)cc1)C(=O)N[C@@H](CC(N)=O)C(=O)N[C@@H](Cc1c[nH]c2ccccc12)C(=O)N[C@@H](CC(C)C)C(=O)N[C@H](C(=O)N[C@@H](CCCNC(=N)N)C(=O)N[C@@H](CCC(N)=O)C(=O)N[C@@H](CCCNC(=N)N)C(=O)N[C@@H](Cc1ccc(O)cc1)C(N)=O)[C@@H](C)O)C(C)C
B3: Compound 69 (peptide)
peptide: Isovaleryl-APEK([AEEA-AEEA-γGlu-C18 diacid])PEEDSSAEELQRYYVSLRHYYNWLTRQRY-NH2
SMILES: CC(C)CC(=O)N[C@@H](C)C(=O)N1CCC[C@H]1C(=O)N[C@@H](CCC(=O)O)C(=O)N[C@@H](CCCCNC(=O)COCCOCCNC(=O)COCCOCCNC(=O)CC[C@H](NC(=O)CCCCCCCCCCCCCCCCC(=O)O)C(=O)O)C(=O)N1CCC[C@H]1C(=O)N[C@@H](CCC(=O)O)C(=O)N[C@@H](CCC(=O)O)C(=O)N[C@@H](CC(=O)O)C(=O)N[C@@H](CO)C(=O)N[C@@H](CO)C(=O)N[C@@H](C)C(=O)N[C@@H](CCC(=O)O)C(=O)N[C@@H](CCC(=O)O)C(=O)N[C@@H](CC(C)C)C(=O)N[C@@H](CCC(N)=O)C(=O)N[C@@H](CCCNC(=N)N)C(=O)N[C@@H](Cc1ccc(O)cc1)C(=O)N[C@@H](Cc1ccc(O)cc1)C(=O)N[C@H](C(=O)N[C@@H](CO)C(=O)N[C@@H](CC(C)C)C(=O)N[C@@H](CCCNC(=N)N)C(=O)N[C@@H](Cc1c[nH]cn1)C(=O)N[C@@H](Cc1ccc(O)cc1)C(=O)N[C@@H](Cc1ccc(O)cc1)C(=O)N[C@@H](CC(N)=O)C(=O)N[C@@H](Cc1c[nH]c2ccccc12)C(=O)N[C@@H](CC(C)C)C(=O)N[C@H](C(=O)N[C@@H](CCCNC(=N)N)C(=O)N[C@@H](CCC(N)=O)C(=O)N[C@@H](CCCNC(=N)N)C(=O)N[C@@H](Cc1ccc(O)cc1)C(N)=O)[C@@H](C)O)C(C)C
B4: Compound 70 (peptide)
peptide: Isovaleryl-APEK([AEEA-AEEA-γGlu-C18 diacid])PEEAASPEELQRYEVSLRHYYNWLTRQRY-NH2
SMILES: CC(C)CC(=O)N[C@@H](C)C(=O)N1CCC[C@H]1C(=O)N[C@@H](CCC(=O)O)C(=O)N[C@@H](CCCCNC(=O)COCCOCCNC(=O)COCCOCCNC(=O)CC[C@H](NC(=O)CCCCCCCCCCCCCCCCC(=O)O)C(=O)O)C(=O)N1CCC[C@H]1C(=O)N[C@@H](CCC(=O)O)C(=O)N[C@@H](CCC(=O)O)C(=O)N[C@@H](C)C(=O)N[C@@H](C)C(=O)N[C@@H](CO)C(=O)N1CCC[C@H]1C(=O)N[C@@H](CCC(=O)O)C(=O)N[C@@H](CCC(=O)O)C(=O)N[C@@H](CC(C)C)C(=O)N[C@@H](CCC(N)=O)C(=O)N[C@@H](CCCNC(=N)N)C(=O)N[C@@H](Cc1ccc(O)cc1)C(=O)N[C@@H](CCC(=O)O)C(=O)N[C@H](C(=O)N[C@@H](CO)C(=O)N[C@@H](CC(C)C)C(=O)N[C@@H](CCCNC(=N)N)C(=O)N[C@@H](Cc1c[nH]cn1)C(=O)N[C@@H](Cc1ccc(O)cc1)C(=O)N[C@@H](Cc1ccc(O)cc1)C(=O)N[C@@H](CC(N)=O)C(=O)N[C@@H](Cc1c[nH]c2ccccc12)C(=O)N[C@@H](CC(C)C)C(=O)N[C@H](C(=O)N[C@@H](CCCNC(=N)N)C(=O)N[C@@H](CCC(N)=O)C(=O)N[C@@H](CCCNC(=N)N)C(=O)N[C@@H](Cc1ccc(O)cc1)C(N)=O)[C@@H](C)O)C(C)C
B5: Compound 71 (peptide)
peptide: Isovaleryl-APEK([AEEA-AEEA-γGlu-C18 diacid])PEEEASPSELQRYYVSLRHYYNWLTRQRY-NH2
SMILES: CC(C)CC(=O)N[C@@H](C)C(=O)N1CCC[C@H]1C(=O)N[C@@H](CCC(=O)O)C(=O)N[C@@H](CCCCNC(=O)COCCOCCNC(=O)COCCOCCNC(=O)CC[C@H](NC(=O)CCCCCCCCCCCCCCCCC(=O)O)C(=O)O)C(=O)N1CCC[C@H]1C(=O)N[C@@H](CCC(=O)O)C(=O)N[C@@H](CCC(=O)O)C(=O)N[C@@H](CCC(=O)O)C(=O)N[C@@H](C)C(=O)N[C@@H](CO)C(=O)N1CCC[C@H]1C(=O)N[C@@H](CO)C(=O)N[C@@H](CCC(=O)O)C(=O)N[C@@H](CC(C)C)C(=O)N[C@@H](CCC(N)=O)C(=O)N[C@@H](CCCNC(=N)N)C(=O)N[C@@H](Cc1ccc(O)cc1)C(=O)N[C@@H](Cc1ccc(O)cc1)C(=O)N[C@H](C(=O)N[C@@H](CO)C(=O)N[C@@H](CC(C)C)C(=O)N[C@@H](CCCNC(=N)N)C(=O)N[C@@H](Cc1c[nH]cn1)C(=O)N[C@@H](Cc1ccc(O)cc1)C(=O)N[C@@H](Cc1ccc(O)cc1)C(=O)N[C@@H](CC(N)=O)C(=O)N[C@@H](Cc1c[nH]c2ccccc12)C(=O)N[C@@H](CC(C)C)C(=O)N[C@H](C(=O)N[C@@H](CCCNC(=N)N)C(=O)N[C@@H](CCC(N)=O)C(=O)N[C@@H](CCCNC(=N)N)C(=O)N[C@@H](Cc1ccc(O)cc1)C(N)=O)[C@@H](C)O)C(C)C

Molecular target: T1, human neuropeptide Y2 receptor
Assay: radioligand competition (125I-PYY(1-36)), hNPY2R membranes
Procedure, shortened: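 Commercial human Y2 receptor membranes (0.5 μg protein/well) were incubated with peptide for 2 h at room temperature in 50 mM HEPES, 5 mM MgCl₂, 1 mM CaCl₂, pH 7.4, with 0.2% ovalbumin. Bound radioligand was separated on PEI-soaked GF/C filters and counted by scintillation, and IC₅₀ came from nonlinear sigmoidal regression.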

| Binder | Ki [nM] |
| --- | --- |
| B1 | 4.37 |
| B2 | 8.47 |
| B3 | 5.74 |
| B4 | 4.86 |
| B5 | 5.22 |

Reference: US20210139548A1 (published 2021)
